Laboratory results from patent publication US20070099283A1 (published 2007).

Biological target: T1, mature recombinant proteinase K from Tritirachium album Limber (processed, natured from pro-proteinase K) (Tritirachium album Limber, UniProt P06873 106-384)
T1 construct: Made in E. coli as pro-proteinase K inclusion bodies, natured in vitro and cleaved autocatalytically; also called processed recombinant proteinase K; native proteinase K
Assay: chromatographic methods and SDS-PAGE of natured pro-proteinase K

T1 sequence (P06873 106-384): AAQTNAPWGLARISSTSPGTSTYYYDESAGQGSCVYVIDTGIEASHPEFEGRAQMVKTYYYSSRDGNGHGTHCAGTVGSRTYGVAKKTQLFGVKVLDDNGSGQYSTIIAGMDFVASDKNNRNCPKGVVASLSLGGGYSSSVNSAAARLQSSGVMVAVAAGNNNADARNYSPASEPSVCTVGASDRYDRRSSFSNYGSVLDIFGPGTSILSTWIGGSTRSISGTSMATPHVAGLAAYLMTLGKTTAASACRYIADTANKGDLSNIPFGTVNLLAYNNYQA

- binding result: binds
B1: propeptide (prosequence) of proteinase K from Tritirachium album Limber (peptide)
chain: APAVEQRSEAAPLIEARGEMVANKYIVKFKEGSALSALDAAMEKISGKPDHVYKNVFSGFAATLDENMVRVLRAHPDVEYIEQDAVVTIN
